Test results reported in US20160194394A1 (GOVERNING COUNCIL OF THE UNIVERSITY OF TORONTO, published 2016).

How the values were obtained:
Fc control protein [1] = target: T1, Fc control protein; experiment: ELISA, 1ug/ml (20nM) Fab [cont'd]
T1 construct: also called Fc protein; control Fc protein
Description: (§1) FIG. 2B is a table depicting the binding of purified Fabs to purified FZD7-Fc measured by ELISA. Fabs purified from 25 ml bacterial cultures were assayed for binding to FZD7-Fc fusion protein (R&D systems) and Fc protein. ELISA plates (384 well) were coated with 2 ug/ml of protein in PBS overnight at four degrees. Wells were blocked with 0.5% BSA/PBS for 1 hour at room temperature, washed three times with 0.05% Tween20/PBS (wash buffer), and then primary dilutions of Fabs in 0.5% BSA/0.05% Tween20/PBS (dilution buffer) were added at indicated concentrations. Fabs were incubated for 1 hour at room temperature, wells were washed six times, and anti-FLAG-HRP (Sigma) was added at 1:5000 in dilution buffer. Secondary antibody was incubated for 45 minutes at room temperature, and wells were washed six times and developed with TMB substrate with an acid stop. The absorbance at 450 nm was read. n.t.=not tested.

Fc control protein [2] = target: T1, Fc control protein; experiment: ELISA, 10ug/ml (200nM) Fab [cont'd]
Description: as §1

[3] = target: T2, FZD7 receptor expressed on cells (full-length) (UniProt O75084 33-574, limits assumed); experiment: flow cytometry, 200 nM Fab, FZD7 over-expression line (MDA MB 231) [cont'd]
T2 construct: whole, on cells; MDA MB 231 cells may carry other Frizzled receptors too; also called full-length FZD7 receptor; endogenous receptor on MDA MB 231 cells
Description: (§2) FIG. 3 is a table depicting the binding of the purified Fabs to cells expressing FZD7 (flow cytometry). Small scale Fabs were assayed for binding to full-length FZD7 receptor to an over-expression line in MDA MB 231 cells. In parallel, Fabs were assayed for binding to endogenous receptor expressed on the MDA MB 231 cells. Cells were harvested using an EDTA solution, blocked in 2% FBS/PBS (stain buffer), and stained with 200 nM Fab for 30 min on ice. Cells were washed two times with stain buffer and incubated with anti-F(ab′)₂-APC secondary antibody (Jackson Immuno) at 1:1000 for 15 minutes on ice. All antibodies were diluted in stain buffer. Cells were washed three times with stain buffer and then fixed with 1% paraformaldehye for analysis by flow cytometry. […] The percent of the cell population within the positive gates is indicated.

[4] = target: T2, FZD7 receptor expressed on cells …; experiment: flow cytometry, 200 nM Fab, MDA MB 231 [cont'd]
Description: as §2

[5] = target: T2, FZD7 receptor expressed on cells …; experiment: flow cytometry, 200 nM Fab, MDA MB 231
Description: as §2

[6] = target: T2, FZD7 receptor expressed on cells …; experiment: flow cytometry, 200 nM Fab, FZD7 over-expression line (MDA MB 231)
Description: as §2

Fc control protein [7] = target: T1, Fc control protein; experiment: ELISA, 1ug/ml (20nM) Fab
Description: as §1

[8] = target: T3, recombinant Frizzled receptor 7 (FZD7) cysteine-rich domain (CRD) fused to the Fc region of human IgG (human, UniProt O75084 33-185); experiment: ELISA, 1ug/ml (20nM) Fab
Description: as §1

Fc control protein [9] = target: T1, Fc control protein; experiment: ELISA, 10ug/ml (200nM) Fab
Description: as §1

[10] = target: T3, recombinant Frizzled receptor 7 (FZD7) …; experiment: ELISA, 10ug/ml (200nM) Fab
Description: as §1

| Binder | OD 450 (Fc control protein [1]) | OD 450 (Fc control protein [2]) | % population within the positive gate [3] [%] | % population within the positive gate [4] [%] | % population within the positive gate [5] [%] | % population within the positive gate [6] [%] | OD 450 (Fc control protein [7]) | OD 450 [8] | OD 450 (Fc control protein [9]) | OD 450 [10] |
| --- | --- | --- | --- | --- | --- | --- | --- | --- | --- | --- |
| D5 (Fab, selection round 2; also called Fzd7-R2-D5) light: DIQMTQSPSSLSASVGDRVTITCRASQSVSSAVAWYQQKPGKAPKLLIYSASSLYSGVPSRFSGSRSGTDFTLTISSLQPEDFATYYCQQAYYLITFGQGTKVEIKRTVAAPSVFIFPPSDSQLKSGTASVVCLLNNFYPREAKVQWKVDNALQSGNSQESVTEQDSKDSTYSLSSTLTLSKADYEKHKVYACEVTHQGLSSPVTKSFNRGECGGS heavy: EVQLVESGGGLVQPGGSLRLSCAASGFNIYYSSIHWVRQAPGKGLEWVASIYPSSGYTYYADSVKGRFTISADTSKNTAYLQMNSLRAEDTAVYYCARWAPHSSSWWSVYGWSAWAFDYWGQGTLVTVSSASTKGPSVFPLAPSSKSTSGGTAALGCLVKDYFPEPVTVSWNSGALTSGVHTFPAVLQSSGLYSLSSVVTVPSSSLGTQTYICNVNHKPSNTKVDKKVEPKSC | – | – | – | – | 3.9 | 88.1 | 0.06 | 2.65 | 0.17 | 3.21 |
| B8 (Fab, selection round 2; also called Fzd7-R2-B8) light: DIQMTQSPSSLSASVGDRVTITCRASQSVSSAVAWYQQKPGKAPKLLIYSASSLYSGVPSRFSGSRSGTDFTLTISSLQPEDFATYYCQQSSYSLITFGQGTKVEIKRTVAAPSVFIFPPSDSQLKSGTASVVCLLNNFYPREAKVQWKVDNALQSGNSQESVTEQDSKDSTYSLSSTLTLSKADYEKHKVYACEVTHQGLSSPVTKSFNRGECGGS heavy: EVQLVESGGGLVQPGGSLRLSCAASGFNISSYYIHWVRQAPGKGLEWVASISSSYGYTYYADSVKGRFTISADTSKNTAYLQMNSLRAEDTAVYYCARPWSHYSSGAYWHPWSGHALDYWGQGTLVTVSSASTKGPSVFPLAPSSKSTSGGTAALGCLVKDYFPEPVTVSWNSGALTSGVHTFPAVLQSSGLYSLSSVVTVPSSSLGTQTYICNVNHKPSNTKVDKKVEPKSC | – | – | – | – | 2.8 | 80.9 | 0.05 | 0.24 | 0.05 | 1.16 |
| D6 (Fab, selection round 2; also called Fzd7-R2-D6) light: DIQMTQSPSSLSASVGDRVTITCRASQSVSSAVAWYQQKPGKAPKLLIYSASSLYSGVPSRFSGSRSGTDFTLTISSLQPEDFATYYCQQFYYSLITFGQGTKVEIKRTVAAPSVFIFPPSDSQLKSGTASVVCLLNNFYPREAKVQWKVDNALQSGNSQESVTEQDSKDSTYSLSSTLTLSKADYEKHKVYACEVTHQGLSSPVTKSFNRGECGGS heavy: EVQLVESGGGLVQPGGSLRLSCAASGFNISYSSMHWVRQAPGKGLEWVASIYSSYSYTSYADSVKGRFTISADTSKNTAYLQMNSLRAEDTAVYYCARSYGPWAPGWAAYWGGYGMDYWGQGTLVTVSSASTKGPSVFPLAPSSKSTSGGTAALGCLVKDYFPEPVTVSWNSGALTSGVHTFPAVLQSSGLYSLSSVVTVPSSSLGTQTYICNVNHKPSNTKVDKKVEPKSC | – | – | – | – | 35.3 | 84.3 | 0.06 | 2.98 | 0.12 | 3.09 |
| C8 (Fab, selection round 2; also called Fzd7-R2-C8) light: DIQMTQSPSSLSASVGDRVTITCRASQSVSSAVAWYQQKPGKAPKLLIYSASSLYSGVPSRFSGSRSGTDFTLTISSLQPEDFATYYCQQYSPSSFLITFGQGTKVEIKRTVAAPSVFIFPPSDSQLKSGTASVVCLLNNFYPREAKVQWKVDNALQSGNSQESVTEQDSKDSTYSLSSTLTLSKADYEKHKVYACEVTHQGLSSPVTKSFNRGECGGS heavy: EVQLVESGGGLVQPGGSLRLSCAASGFNIYYSYIHWVRQAPGKGLEWVASISSSSGYTSYADSVKGRFTISADTSKNTAYLQMNSLRAEDTAVYYCARSYGYYYYFYYYGGMDYWGQGTLVTVSSASTKGPSVFPLAPSSKSTSGGTAALGCLVKDYFPEPVTVSWNSGALTSGVHTFPAVLQSSGLYSLSSVVTVPSSSLGTQTYICNVNHKPSNTKVDKKVEPKSC | – | – | – | – | 2.7 | 83.5 | 0.05 | 0.55 | 0.09 | 1.36 |
| D2 (Fab, selection round 2; also called Fzd7-R2-D2) light: DIQMTQSPSSLSASVGDRVTITCRASQSVSSAVAWYQQKPGKAPKLLIYSASSLYSGVPSRFSGSRSGTDFTLTISSLQPEDFATYYCQQSYSGWGPFTFGQGTKVEIKRTVAAPSVFIFPPSDSQLKSGTASVVCLLNNFYPREAKVQWKVDNALQSGNSQESVTEQDSKDSTYSLSSTLTLSKADYEKHKVYACEVTHQGLSSPVTKSFNRGECGGS heavy: EVQLVESGGGLVQPGGSLRLSCAASGFNISSSYIHWVRQAPGKGLEWVASISSSSSYTYYADSVKGRFTISADTSKNTAYLQMNSLRAEDTAVYYCARSAYPFSWSYPSYVGYYSGLDYWGQGTLVTVSSASTKGPSVFPLAPSSKSTSGGTAALGCLVKDYFPEPVTVSWNSGALTSGVHTFPAVLQSSGLYSLSSVVTVPSSSLGTQTYICNVNHKPSNTKVDKKVEPKSC | – | – | – | – | 0.8 | 75.2 | 0.06 | 0.5 | 0.05 | 1.6 |

Results, then the binder that gave them:

| OD 450 (Fc control protein [1]) | OD 450 (Fc control protein [2]) | % population within the positive gate [3] [%] | % population within the positive gate [4] [%] | % population within the positive gate [5] [%] | % population within the positive gate [6] [%] | OD 450 (Fc control protein [7]) | OD 450 [8] | OD 450 (Fc control protein [9]) | OD 450 [10] | Binder |
| --- | --- | --- | --- | --- | --- | --- | --- | --- | --- | --- |
| 0.05 | 0.06 | 74.6 | 0.9 | – | – | – | – | – | – | B12 (Fab, V domains shown, selection round 2; also called Fzd7-R2-B12) VH: EVQLVESGGGLVQPGGSLRLSCAASGFNLSYSYMHWVRQAPGKGLEWVASISSSYGYTYYADSVKGRFTISADTSKNTAYLQMNSLRAEDTAVYYCARAAGPYWYSYWYSAMDYWGQGTLVTVSS VL: DIQMTQSPSSLSASVGDRVTITCRASQSVSSAVAWYQQKPGKAPKLLIYSASSLYSGVPSRFSGSRSGTDFTLTISSLQPEDFATYYCQQSSYSLITFGQGTKVEIKR |
| – | – | – | – | 1 | 42 | 0.07 | 0.24 | 0.06 | 1.09 | C11 (Fab, selection round 2; also called Fzd7-R2-C11) light: DIQMTQSPSSLSASVGDRVTITCRASQSVSSAVAWYQQKPGKAPKLLIYSASSLYSGVPSRFSGSRSGTDFTLTISSLQPEDFATYYCQQGHYYPYYLFTFGQGTKVEIKRTVAAPSVFIFPPSDSQLKSGTASVVCLLNNFYPREAKVQWKVDNALQSGNSQESVTEQDSKDSTYSLSSTLTLSKADYEKHKVYACEVTHQGLSSPVTKSFNRGECGGS heavy: EVQLVESGGGLVQPGGSLRLSCAASGFNIYYSYMHWVRQAPGKGLEWVASIYSYSGYTYYADSVKGRFTISADTSKNTAYLQMNSLRAEDTAVYYCARSVWGYPYGMDYWGQGTLVTVSSASTKGPSVFPLAPSSKSTSGGTAALGCLVKDYFPEPVTVSWNSGALTSGVHTFPAVLQSSGLYSLSSVVTVPSSSLGTQTYICNVNHKPSNTKVDKKVEPKSC |
| – | – | – | – | – | – | 0.05 | 3.18 | 0.06 | 3.23 | H11 (Fab, selection round 2; also called Fzd7-R2-H11) light: DIQMTQSPSSLSASVGDRVTITCRASQSVSSAVAWYQQKPGKAPKLLIYSASSLYSGVPSRFSGSRSGTDFTLTISSLQPEDFATYYCQQYSGPITFGQGTKVEIKRTVAAPSVFIFPPSDSQLKSGTASVVCLLNNFYPREAKVQWKVDNALQSGNSQESVTEQDSKDSTYSLSSTLTLSKADYEKHKVYACEVTHQGLSSPVTKSFNRGECGGS heavy: EVQLVESGGGLVQPGGSLRLSCAASGFNISSSYIHWVRQAPGKGLEWVAYIYPYYSYTYYADSVKGRFTISADTSKNTAYLQMNSLRAEDTAVYYCARSVTYHSSGWVPPWYWGYAFDYWGQGTLVTVSSASTKGPSVFPLAPSSKSTSGGTAALGCLVKDYFPEPVTVSWNSGALTSGVHTFPAVLQSSGLYSLSSVVTVPSSSLGTQTYICNVNHKPSNTKVDKKVEPKSC |
| 0.05 | 0.05 | – | – | – | – | – | – | – | – | A10 (Fab, V domains shown, selection round 3; also called Fzd7-R3-A10) VH: EVQLVESGGGLVQPGGSLRLSCAASGFNFSSSSIHWVRQAPGKGLEWVAYIYPYYGYTYYADSVKGRFTISADTSKNTAYLQMNSLRAEDTAVYYCARWVVAGHYGMDYWGQGTLVTVSS VL: DIQMTQSPSSLSASVGDRVTITCRASQSVSSAVAWYQQKPGKAPKLLIYSASSLYSGVPSRFSGSRSGTDFTLTISSLQPEDFATYYCQQSYWPGWPITFGQGTKVEIKR |
